Read-outs that look alike come from different tables or passages of the source. Blank lines part the entries; values can stand above or below the substance they belong to.
Experiments:
[1] = molecular target: DO11.10 scTCR/murine IgG2b fusion molecule (mouse) (UniProt P01867); assay: sandwich ELISA on supernatant of COS-7 cells co-transfected with both fusions; goat anti-murine kappa capture, anti-murine IgG2b-HRP detection, A450
[2] = molecular target: DO11.10 TCR (endogenous T cell receptor of the DO11.10 T cell hybridoma); assay: cell-based or functional assay
[3] = molecular target: DO11.10 scTCR/murine CD3ζ fusion molecule (membrane-bound, on transfected cells) (mouse) (UniProt P24161); assay: cell-based or functional assay
[4] = molecular target: DO11.10 TCR (endogenous T cell receptor of the DO11.10 T cell hybridoma); assay: cell-based or functional assay; remark: listed apart in the source

Sequence of UniProt P24161 (P24161 whole entry, the tested form may be a part): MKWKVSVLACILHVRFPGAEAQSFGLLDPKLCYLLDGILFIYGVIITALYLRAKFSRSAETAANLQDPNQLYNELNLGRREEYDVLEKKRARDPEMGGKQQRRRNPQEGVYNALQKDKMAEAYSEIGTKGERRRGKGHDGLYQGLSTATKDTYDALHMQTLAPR
Sequence of UniProt P01867 (P01867 other isoform, or with tags, fused parts or gaps): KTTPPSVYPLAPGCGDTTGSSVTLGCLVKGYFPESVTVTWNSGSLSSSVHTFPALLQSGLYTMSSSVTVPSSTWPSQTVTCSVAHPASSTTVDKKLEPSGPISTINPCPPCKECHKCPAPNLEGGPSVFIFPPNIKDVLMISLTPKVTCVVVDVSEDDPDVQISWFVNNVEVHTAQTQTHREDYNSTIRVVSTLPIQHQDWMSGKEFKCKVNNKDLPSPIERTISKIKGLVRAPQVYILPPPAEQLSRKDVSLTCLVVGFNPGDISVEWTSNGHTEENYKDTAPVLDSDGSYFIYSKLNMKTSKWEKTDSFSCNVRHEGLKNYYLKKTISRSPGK

IL-2 ELISA value; DO11.10 cells; 31 ng complex/well [2]: 0.242 A450
IL-2 ELISA value; DO11.10 cells; 62 ng complex/well [2]: 0.398 A450
IL-2 ELISA value; DO11.10 cells; 125 ng complex/well [2]: 0.513 A450
IL-2 ELISA value; DO11.10 cells; 500 ng complex/well [2]: 1.05 A450
IL-2 ELISA value; DO11.10 cells; 1000 ng complex/well [2]: 1.16 A450
Substance: monovalent scIA^d/OVA-BirA complexes (monomer, no avidin) (peptide-MHC)

IL-2 ELISA value; DO11.10 cells; 31 ng complex/well [2]: 0.554 A450
IL-2 ELISA value; DO11.10 cells; 62 ng complex/well [2]: 0.744 A450
IL-2 ELISA value; DO11.10 cells; 125 ng complex/well [2]: 0.916 A450
IL-2 ELISA value; DO11.10 cells; 500 ng complex/well [2]: 1.6 A450
IL-2 ELISA value; DO11.10 cells; 1000 ng complex/well [2]: 1.86 A450
Substance: multi-valent scIA^d/OVA-BirA complexes (biotinylated scIA^d/OVA-BirA bound to avidin) (from UniProt P02701 25-152) (peptide-MHC)

Second part, the substance before the results:

Substance: DO11.10 scTCR/murine kappa fusion molecule
absorbance relative to the negative control (fold) [1]: 40 fold

Substance: scIA^d/GD-IgG multimer (scIA^d/GD-Cκ fusion with scIA^d/GD-IgG2b heavy chain fusion) (peptide-MHC)
IL-2 ELISA value; DO11.10 T cells; 12.5 ng complex/well [2]: 0.159 A405
IL-2 ELISA value; DO11.10 T cells; 25 ng complex/well [2]: 0.166 A405
IL-2 ELISA value; DO11.10 T cells; 50 ng complex/well [2]: 0.155 A405
IL-2 ELISA value; DO11.10 T cells; 100 ng complex/well [2]: 0.166 A405

Substance: scIA^d/GD-IgM fusion (scIA^d/GD fused to CH2-CH3-CH4 of human IgM heavy chain), multi-valent (from UniProt P01871 106-453) (peptide-MHC)
IL-2 ELISA value; DO11.10 T cells; 0.3 ng complex/well [2]: 0.189 A405
IL-2 ELISA value; DO11.10 T cells; 1 ng complex/well [2]: 0.184 A405
IL-2 ELISA value; DO11.10 T cells; 4 ng complex/well [2]: 0.179 A405
IL-2 ELISA value; DO11.10 T cells; 11 ng complex/well [2]: 0.188 A405
IL-2 ELISA value; DO11.10 T cells; 33 ng complex/well [2]: 0.206 A405
IL-2 ELISA value; DO11.10 T cells; 100 ng complex/well [2]: 0.221 A405
IL-2 ELISA value; DO11.10 T cells; 300 ng complex/well [2]: 0.248 A405
IL-2 ELISA value; BWDZ:CD4+ transfectants; 40 ng complex/well [3]: 0.282 A405
IL-2 ELISA value; BWDZ:CD4+ transfectants; 200 ng complex/well [3]: 0.309 A405
IL-2 ELISA value; BWDZ:CD4+ transfectants; 1000 ng complex/well [3]: 0.375 A405
IL-2 ELISA value; DO11.10 scTCR 2B4 transfectants; 1 ng complex/well [3]: 0.196 A405
IL-2 ELISA value; DO11.10 scTCR 2B4 transfectants; 3 ng complex/well [3]: 0.19 A405
IL-2 ELISA value; DO11.10 scTCR 2B4 transfectants; 7 ng complex/well [3]: 0.213 A405
IL-2 ELISA value; DO11.10 scTCR 2B4 transfectants; 15 ng complex/well [3]: 0.199 A405
IL-2 ELISA value; DO11.10 scTCR 2B4 transfectants; 31 ng complex/well [3]: 0.226 A405
IL-2 ELISA value; DO11.10 scTCR 2B4 transfectants; 62 ng complex/well [3]: 0.224 A405
IL-2 ELISA value; DO11.10 scTCR 2B4 transfectants; 125 ng complex/well [3]: 0.233 A405
IL-2 ELISA value; DO11.10 scTCR 2B4 transfectants; 250 ng complex/well [3]: 0.224 A405
IL-2 ELISA value; DO11.10 T cells; 1 ng complex/well [4]: 0.153 A405
IL-2 ELISA value; DO11.10 T cells; 3 ng complex/well [4]: 0.14 A405
IL-2 ELISA value; DO11.10 T cells; 7 ng complex/well [4]: 0.148 A405
IL-2 ELISA value; DO11.10 T cells; 15 ng complex/well [4]: 0.14 A405
IL-2 ELISA value; DO11.10 T cells; 31 ng complex/well [4]: 0.165 A405
IL-2 ELISA value; DO11.10 T cells; 62 ng complex/well [4]: 0.157 A405
IL-2 ELISA value; DO11.10 T cells; 125 ng complex/well [4]: 0.18 A405
IL-2 ELISA value; DO11.10 T cells; 250 ng complex/well [4]: 0.193 A405
